Values quoted from earlier work in US7419780B2, “Methods and assays for screening protein targets” (The Trustees of Columbia University in the City of New York, priority 2000, dated 2008).

Settings: substrate nitrocefin

B1: E. cloacae P99 wt: wild-type E. cloacae P99 cephase (protein, UniProt P05364 21-381, looked up)
Beta-lactamase: TPVSEKQLAEVVANTITPLMKAQSVPGMAVAVIYQGKPHYYTFGKADIAANKPVTPQTLFELGSISKTFTGVLGGDAIARGEISLDDAVTRYWPQLTGKQWQGIRMLDLATYTAGGLPLQVPDEVTDNASLLRFYQNWQPQWKPGTTRLYANASIGLFGALAVKPSGMPYEQAMTTRVLKPLKLDHTWINVPKAEEAHYAWGYRDGKAVRVSPGMLDAQAYGVKTNVQDMANWVMANMAPENVADASLKQGIALAQSRYWRIGSMYQGLGWEMLNWPVEANTVVEGSDSKVALAPLPVAEVNPPAPPVKASWVHKTGSTGGFGSYVAFIPEKQIGIVMLANTSYPNPARVEAAYHILEALQ
For B1, the “% WT (percentage of wild-type kcat/Km as calculated in that experiment)” value is listed as 100%, the Km is listed as 25 ± 1 µM and the kcat is listed as 780 ± 30 s⁻¹.
